B1: DC00080 (other)
chain 1: QVQLVESGGGLVQAGGSLRLSCAASGGTFRTRNMGWFRRAPGKEREFVAAVSWNVDNKLYADSVKGRFTISRDNGRNMVYLQMNSLKPEDTAVYYCAADNIPLSSDMRPTATEYDYWGQGTQVTVSSDKTHTCPPCPAPEAAGGPSVFLFPPKPKDTLMISRTPEVTCVVVDVSHEDPEVKFNWYVDGVEVHNAKTKPREEQYNSTYRVVSVLTVLHQDWLNGKEYKCKVSNKALGAPIEKTISKAKGQPREPQVYTLPPSRDELTKNQVSLTCLVKGFYPSDIAVEWESNGQPENNYKTTPPVLDSDGSFLLYSKLTVDKSRWQQGNVFSCSVMHEALHNHYTQKSLSLSPGK
chain 2: EVQLVESGGGLVQTGGSLRLSCAASGGTFSRDAMAWFRQVPGKEREFVALISWSGATTNYADSVKGRFAISRDNGKNTVYLQMNRLKPADTAIYYCAADRRPMGSRSYFEPTEYDDWGQGTQVTVSSGGGGSGGGGSGGGGSQVQLVESGGGLVQPGGSLRLSCATSGFTFRNNFMSWVRQAPGKGLEWVSTISYGGESTTYAESVKGRFTISRDNAKNTLYLQMNNLKPEDTAVYYCAKATSYDSIRSGSRGQGTQVTVSSGGGGSGGGGSGGGGSQVQLVESGGGLVQAGGSLTLSCAAPGRTFGTDVVGWFRQAPGKEREFVASISRSGDGIYYDDSVKGRFTISRNNAWNTVNLQMNSLKVEDTAVYYCAAGDGWSTYDYWGQGTQVTVSSGGGGSGGGGSGGGGSDKTHTCPPCPAPEAAGGPSVFLFPPKPKDTLMISRTPEVTCVVVDVSHEDPEVKFNWYVDGVEVHNAKTKPREEQYNSTYRVVSVLTVLHQDWLNGKEYKCKVSNKALGAPIEKTISKAKGQPREPQVYTLPPSRDELTKNQVSLTCLVKGFYPSDIAVEWESNGQPENNYKTTPPVLDSDGSFFLYSRLTVDKSRWQQGNVFSCSVMHEALHNHYTQKSLSLSPGK
B2: DC00081 (other)
chain 1: B1 chain 1
chain 2: QVQLVESGGGLVQPGGSLRLSCATSGFTFRNNFMSWVRQAPGKGLEWVSTISYGGESTTYAESVKGRFTISRDNAKNTLYLQMNNLKPEDTAVYYCAKATSYDSIRSGSRGQGTQVTVSSGGGGSGGGGSGGGGSQVQLVESGGGLVQAGGSLTLSCAAPGRTFGTDVVGWFRQAPGKEREFVASISRSGDGIYYDDSVKGRFTISRNNAWNTVNLQMNSLKVEDTAVYYCAAGDGWSTYDYWGQGTQVTVSSGGGGSGGGGSGGGGSEVQLVESGGGLVQTGGSLRLSCAASGGTFSRDAMAWFRQVPGKEREFVALISWSGATTNYADSVKGRFAISRDNGKNTVYLQMNRLKPADTAIYYCAADRRPMGSRSYFEPTEYDDWGQGTQVTVSSGGGGSGGGGSGGGGSDKTHTCPPCPAPEAAGGPSVFLFPPKPKDTLMISRTPEVTCVVVDVSHEDPEVKFNWYVDGVEVHNAKTKPREEQYNSTYRVVSVLTVLHQDWLNGKEYKCKVSNKALGAPIEKTISKAKGQPREPQVYTLPPSRDELTKNQVSLTCLVKGFYPSDIAVEWESNGQPENNYKTTPPVLDSDGSFFLYSRLTVDKSRWQQGNVFSCSVMHEALHNHYTQKSLSLSPGK
B3: DC00085 (other)
chain 1: EVQLVESGGGLVQAGGSLRLSCAASGGSIYTYNMGWFRQAPGKEREFVAGTLWSGGDSVYADFAKGRFTLSRENAKNTLYLQMNSLKPEDTATYYCAIDPLSLTSDWRVDELSSWGKGTLVTVSSDKTHTCPPCPAPEAAGGPSVFLFPPKPKDTLMISRTPEVTCVVVDVSHEDPEVKFNWYVDGVEVHNAKTKPREEQYNSTYRVVSVLTVLHQDWLNGKEYKCKVSNKALGAPIEKTISKAKGQPREPQVYTLPPSRDELTKNQVSLTCLVKGFYPSDIAVEWESNGQPENNYKTTPPVLDSDGSFLLYSKLTVDKSRWQQGNVFSCSVMHEALHNHYTQKSLSLSPGK
chain 2: B1 chain 2
B4: DC00083 (other)
chain 1: B1 chain 1
chain 2: QVQLVESGGGLVQAGGSLTLSCAAPGRTFGTDVVGWFRQAPGKEREFVASISRSGDGIYYDDSVKGRFTISRNNAWNTVNLQMNSLKVEDTAVYYCAAGDGWSTYDYWGQGTQVTVSSGGGGSGGGGSGGGGSEVQLVESGGGLVQTGGSLRLSCAASGGTFSRDAMAWFRQVPGKEREFVALISWSGATTNYADSVKGRFAISRDNGKNTVYLQMNRLKPADTAIYYCAADRRPMGSRSYFEPTEYDDWGQGTQVTVSSGGGGSGGGGSGGGGSQVQLVESGGGLVQPGGSLRLSCATSGFTFRNNFMSWVRQAPGKGLEWVSTISYGGESTTYAESVKGRFTISRDNAKNTLYLQMNNLKPEDTAVYYCAKATSYDSIRSGSRGQGTQVTVSSDKTHTCPPCPAPEAAGGPSVFLFPPKPKDTLMISRTPEVTCVVVDVSHEDPEVKFNWYVDGVEVHNAKTKPREEQYNSTYRVVSVLTVLHQDWLNGKEYKCKVSNKALGAPIEKTISKAKGQPREPQVYTLPPSRDELTKNQVSLTCLVKGFYPSDIAVEWESNGQPENNYKTTPPVLDSDGSFFLYSRLTVDKSRWQQGNVFSCSVMHEALHNHYTQKSLSLSPGK
B5: DC00082 (other)
chain 1: B1 chain 1
chain 2: QVQLVESGGGLVQPGGSLRLSCATSGFTFRNNFMSWVRQAPGKGLEWVSTISYGGESTTYAESVKGRFTISRDNAKNTLYLQMNNLKPEDTAVYYCAKATSYDSIRSGSRGQGTQVTVSSGGGGSGGGGSGGGGSEVQLVESGGGLVQTGGSLRLSCAASGGTFSRDAMAWFRQVPGKEREFVALISWSGATTNYADSVKGRFAISRDNGKNTVYLQMNRLKPADTAIYYCAADRRPMGSRSYFEPTEYDDWGQGTQVTVSSGGGGSGGGGSGGGGSQVQLVESGGGLVQAGGSLTLSCAAPGRTFGTDVVGWFRQAPGKEREFVASISRSGDGIYYDDSVKGRFTISRNNAWNTVNLQMNSLKVEDTAVYYCAAGDGWSTYDYWGQGTQVTVSSGGGGSGGGGSGGGGSDKTHTCPPCPAPEAAGGPSVFLFPPKPKDTLMISRTPEVTCVVVDVSHEDPEVKFNWYVDGVEVHNAKTKPREEQYNSTYRVVSVLTVLHQDWLNGKEYKCKVSNKALGAPIEKTISKAKGQPREPQVYTLPPSRDELTKNQVSLTCLVKGFYPSDIAVEWESNGQPENNYKTTPPVLDSDGSFFLYSRLTVDKSRWQQGNVFSCSVMHEALHNHYTQKSLSLSPGK

What follows are binders tested against T1, human IL-2 receptor (IL-2Rα/IL-2Rβ/γc) (human, UniProt P01589 22-272; P14784 27-551; P31785 23-369) (assay: cell-based or functional assay).
T1 sequence 1: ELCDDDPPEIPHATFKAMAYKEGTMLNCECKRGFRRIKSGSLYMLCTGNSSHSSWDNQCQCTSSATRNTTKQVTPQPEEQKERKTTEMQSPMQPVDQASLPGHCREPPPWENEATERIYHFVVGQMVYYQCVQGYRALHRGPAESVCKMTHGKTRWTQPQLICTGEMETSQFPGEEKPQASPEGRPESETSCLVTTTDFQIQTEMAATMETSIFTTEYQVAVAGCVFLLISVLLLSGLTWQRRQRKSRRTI
T1 sequence 2: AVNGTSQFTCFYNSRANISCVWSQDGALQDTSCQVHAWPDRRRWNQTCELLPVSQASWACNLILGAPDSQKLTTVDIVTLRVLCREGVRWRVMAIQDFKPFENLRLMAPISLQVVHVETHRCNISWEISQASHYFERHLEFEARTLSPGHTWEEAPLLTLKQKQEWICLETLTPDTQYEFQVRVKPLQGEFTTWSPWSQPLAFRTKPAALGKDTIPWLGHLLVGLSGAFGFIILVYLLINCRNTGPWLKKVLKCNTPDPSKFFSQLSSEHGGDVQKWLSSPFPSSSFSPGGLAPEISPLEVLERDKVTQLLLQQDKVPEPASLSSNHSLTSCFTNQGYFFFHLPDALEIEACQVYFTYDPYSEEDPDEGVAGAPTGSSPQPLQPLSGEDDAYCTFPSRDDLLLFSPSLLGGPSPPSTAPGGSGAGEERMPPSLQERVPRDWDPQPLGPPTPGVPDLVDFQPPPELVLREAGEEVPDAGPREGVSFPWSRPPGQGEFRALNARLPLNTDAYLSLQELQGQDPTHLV
T1 sequence 3: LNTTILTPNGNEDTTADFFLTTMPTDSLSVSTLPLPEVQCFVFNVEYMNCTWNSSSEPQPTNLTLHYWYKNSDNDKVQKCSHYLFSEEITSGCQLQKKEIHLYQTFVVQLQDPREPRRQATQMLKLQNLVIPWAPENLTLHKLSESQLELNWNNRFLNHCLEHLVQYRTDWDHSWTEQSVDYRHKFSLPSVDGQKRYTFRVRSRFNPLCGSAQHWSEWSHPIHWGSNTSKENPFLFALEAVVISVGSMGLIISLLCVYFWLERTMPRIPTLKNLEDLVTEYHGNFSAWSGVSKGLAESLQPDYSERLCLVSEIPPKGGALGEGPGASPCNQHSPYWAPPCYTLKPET
B1 was tested, and the “EC50 (nM) pSTAT5, NK, human PBMCs” value was 0.00648 nM, the “EC50 (nM) pSTAT5, Treg, human PBMCs” value was < 0.1 pM and the “Fold Max signal (% pSTAT5+) Treg/NK” value was 4 fold. The “Max signal (% pSTAT5+), NK” value was 4.42 % pSTAT5+, the “Max signal (% pSTAT5+), Treg” value was 17.8 % pSTAT5+ and the “fold EC50 NK/Treg” value was > 64.8 fold. For B2, the “EC50 (nM) pSTAT5, NK, human PBMCs” value was 0.194 nM, the “EC50 (nM) pSTAT5, Treg, human PBMCs” value was < 0.1 pM and the “Fold Max signal (% pSTAT5+) Treg/NK” value was 5 fold. For the same binder, the “Max signal (% pSTAT5+), NK” value was 13.5 % pSTAT5+, the “Max signal (% pSTAT5+), Treg” value was 60.9 % pSTAT5+ and the “fold EC50 NK/Treg” value was > 1940 fold. For B3, the “EC50 (nM) pSTAT5, NK, human PBMCs” value was 0.663 nM, the “EC50 (nM) pSTAT5, Treg, human PBMCs” value was 0.0313 nM and the “Fold Max signal (% pSTAT5+) Treg/NK” value was 4 fold. For the same binder, the “Max signal (% pSTAT5+), NK” value was 2.19 % pSTAT5+, the “Max signal (% pSTAT5+), Treg” value was 8.49 % pSTAT5+ and the “fold EC50 NK/Treg” value was 21 fold. B4 was tested, and the “EC50 (nM) pSTAT5, NK, human PBMCs” value was 0.496 nM, the “EC50 (nM) pSTAT5, Treg, human PBMCs” value was < 0.1 pM and the “Fold Max signal (% pSTAT5+) Treg/NK” value was 5 fold. For the same binder, the “Max signal (% pSTAT5+), NK” value was 13 % pSTAT5+, the “Max signal (% pSTAT5+), Treg” value was 64.1 % pSTAT5+ and the “fold EC50 NK/Treg” value was > 4960 fold. For B5, the “EC50 (nM) pSTAT5, NK, human PBMCs” value was 0.0227 nM, the “EC50 (nM) pSTAT5, Treg, human PBMCs” value was 0.848 pM and the “Fold Max signal (% pSTAT5+) Treg/NK” value was 2 fold. For the same binder, the “Max signal (% pSTAT5+), NK” value was 2.11 % pSTAT5+, the “Max signal (% pSTAT5+), Treg” value was 4.57 % pSTAT5+ and the “fold EC50 NK/Treg” value was 27 fold.

— patent US20240409645A1 (DUALYX, published 2024)
